Measured values taken from the nanobody polyreactivity screen of Harvey et al. (2022).

Experiment: yeast display, Sf9 membrane polyspecificity reagent, FACS + sequencing; frameworks hold sequencing errors
Outline: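 Using colony PCR, genes from sorted yeast display clones were amplified, then sequenced on MiSeq at 2 × 250 and filtered by CDR length. The clones had been stained with 10% biotinylated, detergent-solubilized Sf9 membrane reagent for 1 hour at 4 °C and sorted by FACS into low and high (top ~1%) gates on anti-HA and streptavidin fluorescence. Polyreactivity labels come from the gate of origin.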

Sequence	polyreactivity (PSR sort gate)
QVQLVESGGGLVQAGGSLRLTCAASGLISTPNALGWYRQAPGKEREFVASISSRGGSTYYADSVKGRFTISRDNAMNTVYLQMNSLKPEDTAVYYCAADAYREFYYEYYYWGQGTQVTVSS	low polyreactivity
QVQLVESAGGLVQAGGSLRLSCAASAFTFFDYVMGWYRQAPGKERELVAAISRNVGSTYYADSVKGRFTISRDNAKNTVYLQMNSLKPEDTAVYYCAGEPPPYEYDYWGQGTQVTVSS	high polyreactivity
QVQLVESGGRLVQAGGSLRLSSAASGSTFYVYTMGWYRQAPGKEWELVAAISSGSSTNYADSVKGRFTISRDNAKNTVYLQMNSLQPEDTAVYYCAATRFSYVFPYRYDYWGQGTQVTVSS	low polyreactivity
QVQLVESGGGLVQAGGSLRLSCAASGITFAPYAMGWYRQAPGKERELVAVISSGGSTKYADSVKGRFTISRDNAKNTVYLQMNSLKPEDTAVYYCAASAPRGYGYKYYYWGQGTQVTVSS	high polyreactivity
QVQLVESGGGLVQTGGSLRLSCAASGFNFYINAMGWYRQAPVKERELVAAINWRTGSTYYADSVKGRFTISRDNAKNTVYLQMNSLKQEDTAVYYCAAYGYWRRADTEFDYWGQGTQVTVSS	low polyreactivity
QVQLVESGGGLVQAGGSLRLSCAASGIIFYYYGMGWYRQAPGKEREFVAAISTSGGNTYYADSVKGRFTISRDNAKNTVYLQMNSLKPEDTAVYYCAADDWPWGDAGVDYWGQGTQVTVSS	low polyreactivity
QVQLVESGGGLVQAGGSLRLSCAASGFIIGGNPMGWYRQAPGKVRELVAAITGGGSTYYADSVKGRFTISRENAKNTVYLQMNSLKPEDTAVYYCNAGRVLRLAYNYWGQGTQVTVSS	low polyreactivity
QVQLVESGGGLVQAGGSLRLSCAASGSIFYIYAMGWYRQAPGKERELVAAITWRGGRTYYADSVKGRFTISRDNAKNTVYLQMNSLKPEDTAVYYCAALYAKYYYRYDYWGQGTQVTVSS	high polyreactivity
QVQLVESGGGLVQAGGSLRLSCAASGRIFDRNAMGWYRQAPGKERELVAAITRSGGRPYYADSVKGRFTISRDNAKNTVYLQMNSLKPEDTAVYYCNRGYPRSVVHYNSWGQGTQVTVSS	high polyreactivity
QVQLVESGGGLVQAGGSLRLSCAASGSIFRAYAMGWYRQAPGKERELVAAITNGGGTTYYADSVKGRFTISRDNAKNTVYLQMNSLKPEDTAVYYCAADGAYSYASYDYWGQGTQVTVSS	low polyreactivity
QVQLVESGGGLVQAGGSLRLSCAASGFTITYNAMGWYRKAPGKEREFVAAITNNGSTYYADSVKGRFTISRDNAKNTVYLQMNSLKPEDTAVYFCAVDPGYYDEYNYWGQGTQVTVSS	low polyreactivity
QVQLVESGGGLVQAGGSLRLSCAASGRTFKYNSMGWYRQAPGKERELVAAITRSGSTYYADSVKGRFTISRDNAKNTVYLQMNSLKPEDTAVYYCNARIVNYGSYYYWGQGTQVTVSS	high polyreactivity
QVQLVESGGGLVQAGGSLSLICAASGTTFYYYAMGWYRQAPGKERELVAANTLRGTSTYYADSVKGRFTISRDNAKNTVDLQMNRLKPEDTAVYYCAVETYYSIFDIYDYWGQGTQVTVSS	low polyreactivity
QVELVESGGGLVQAGGSLRLSCAASGSTFDYNAMGWYRQAPGKERELVAAISRTANANYADSVKGRFTISRDNAKNTVYLQMNSLKPEDTSVYYCAADFRASKVHVRFCYWGQGTQVTVSS	low polyreactivity
QVQLVESGGGLVQAGGSLRLSWAASGLTFTHNAMGWYRQAHGKERELVAAISRRGGSTYYADSVKGRFTISRDNAKNTVYLQRNSLKPEDTAVYYCNAPVKVRATTNWEYDYWGQGTEVTVSS	high polyreactivity
QVQLVESGGGLVQAGGSLSLSCAASGSIFFYAMGGYRPAPGKERELVADITYTGGSKYADSVKGRFTISRDNAKYTVYLQMNSLKPEDTAVYSCAKLDGGLFDYWGHGTQVTVSS	low polyreactivity
QVQLVESGGGLVQAGGSLRLSCAASGITFKGNAMGWYRQAPGKERELVAVITWSGGSTYYADSVKGRFTISRDNAKNTVYLQMNSLKPEDTAVYYCAKPWKYGDSQYDYWGQGTQVTVSS	low polyreactivity
